For series [1] the following is noted: mouse, ip.
Series [2] has as its target T1, EphA4 (Homo sapiens, UniProt P54764). Kind of series: ELISA measuring EphA4 activation. It is filed as cell-based. The following applies: HEK-EphA4 cells, ratio of IC50 values. (In an ELISA, binding on a coated surface is turned into a signal by an enzyme label.)
For series [3], the target named is T1, EphA4. To be noted: cited from earlier work.

This is an account of results in PMC10959496 (European journal of medicinal chemistry, 2023).

Some results are limits rather than exact numbers.

T1 sequence (P54764 20-986, species assumed): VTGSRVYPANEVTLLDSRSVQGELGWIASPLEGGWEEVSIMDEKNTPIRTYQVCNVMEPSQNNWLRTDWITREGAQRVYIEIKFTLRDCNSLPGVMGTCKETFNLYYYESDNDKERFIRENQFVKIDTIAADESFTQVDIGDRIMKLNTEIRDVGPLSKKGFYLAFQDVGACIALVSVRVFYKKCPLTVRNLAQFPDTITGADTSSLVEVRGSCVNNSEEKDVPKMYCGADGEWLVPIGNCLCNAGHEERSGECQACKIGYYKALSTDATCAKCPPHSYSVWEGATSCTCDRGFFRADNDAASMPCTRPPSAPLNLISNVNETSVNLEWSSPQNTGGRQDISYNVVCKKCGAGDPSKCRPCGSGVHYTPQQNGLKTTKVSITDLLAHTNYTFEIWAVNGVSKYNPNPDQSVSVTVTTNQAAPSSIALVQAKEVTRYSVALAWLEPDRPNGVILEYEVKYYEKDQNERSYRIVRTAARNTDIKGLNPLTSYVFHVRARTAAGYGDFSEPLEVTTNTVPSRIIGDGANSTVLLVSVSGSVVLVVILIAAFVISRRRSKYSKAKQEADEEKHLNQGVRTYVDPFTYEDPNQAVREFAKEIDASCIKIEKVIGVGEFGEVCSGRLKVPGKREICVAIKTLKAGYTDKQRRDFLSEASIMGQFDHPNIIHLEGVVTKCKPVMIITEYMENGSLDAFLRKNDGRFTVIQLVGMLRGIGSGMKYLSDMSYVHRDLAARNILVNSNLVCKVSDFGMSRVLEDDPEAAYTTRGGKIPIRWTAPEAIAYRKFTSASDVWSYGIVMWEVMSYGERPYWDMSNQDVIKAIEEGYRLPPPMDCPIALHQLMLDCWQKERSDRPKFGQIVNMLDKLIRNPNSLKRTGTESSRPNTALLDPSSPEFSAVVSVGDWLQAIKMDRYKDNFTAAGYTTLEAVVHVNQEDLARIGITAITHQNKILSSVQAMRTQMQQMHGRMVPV

Turning to “APY-d3-PEG4: APY-d3 conjugated to 30 kDa metoxy-PEG-azide through 3 amino-hexanoic acid groups and propargyl-glycine by click chemistry”, the “Blood concentration at 20 hours after injection” value in series [1] (in vivo, 0.8 mg per mouse, 20 h) is given as ~ 3 μM. Moreover, the “Blood concentration at 48 hours after injection” value in series [1] (in vivo, 0.8 mg per mouse, 48 h) came to 400 nM. In series [1], the “In vivo half-life after intraperitoneal injection” value is > 10 h. The “Potency in cells lower than that of APY-d3” value in series [2] is ~ 4 fold.
Turning to APYCVYRβASWSC-NH2 (disulfide) [APY-d2], in series [3], the “More potent than APY” value is reported as 50 fold.
